Assay results reported in patent publication US12533321B2, “Polypeptide formulations for oral delivery” (Bhami's Research Laboratory, Pvt. Ltd., priority 2022, dated 2026).

How the values were obtained:
Assay type in all cases: in vivo, Minipigs
[1] = Pharmacokinetics of hGH in albumin crystal capsule (Vitamin E) vs IV, plasma hGH by ELISA
From the text: The microparticle of albumin crystals containing hGH was then lyophilized after washing with cold isopropanol. […] The capsule was then closed.
(§1) Pigs in the oral treatment group was either fasted overnight or fed prior to the test sample administration. […] The time of dosage of each animal was noted. […] An antibody, anti-hGH was pre-coated onto a 96-well plate. […] The intensity of the yellow color is proportional to the hGH amount bound on the plate.

[2] = Pharmacokinetics of hGH in albumin crystal sugar truffle shell vs IV, plasma hGH by ELISA; details: 0.33 mg; for Mean hGH levels: plasma, Pigs
From the text: The microparticle of albumin crystals containing hGH was then lyophilized after washing with cold isopropanol.
as §1

[3] = Pharmacokinetics of adalimumab in albumin crystal capsule (Vitamin E) vs IV, plasma adalimumab by ELISA; set-up: Mean adalimumab levels: unit not given here; details: 12 mg; for Mean adalimumab levels: plasma, Pigs
From the text: The microparticle of albumin crystals containing adalimumab was then lyophilized after washing with cold isopropanol. […] The capsule was then closed.
as §1, with “anti-adalimumab” for “anti-hGH”, “adalimumab” for “hGH”

[4] = Pharmacokinetics of adalimumab in albumin crystal sugar truffle shell vs IV, plasma adalimumab by ELISA; set-up: Mean adalimumab levels: unit not given here; details: 12 mg; for Mean adalimumab levels: plasma, Pigs
From the text: The microparticle of albumin crystals containing adalimumab was then lyophilized after washing with cold isopropanol.
as §1, with “anti-adalimumab” for “anti-hGH”, “adalimumab” for “hGH”

## hGH: human growth hormone (human recombinant), given IV
[1]; 0 h
  Mean hGH levels: 18144.54 ± 1619.64 pg/mL
[1]; 0.33 mg, Minipigs
  AUC 0-inf_obs: 160.057765 ng·h/mL
  AUC 0-inf_pred: 158.135382 ng·h/mL
  AUC t-inf_obs: 5.998634 ng·h/mL
  AUC t-inf_pred: 4.076251 ng·h/mL
  AUC(0-t): 154.059131 ng·h/mL
  AUMC 0-inf_obs: 1696005.242 pg/ml * h^2
  AUMC 0-inf_pred: 1578826.575 pg/ml * h^2
  AUMC 0-t: 1330359.118 pg/ml * h^2
  AUMC 0-t/0-inf_obs: 0.784
  AUMC 0-t/0-inf_pred: 0.843
  AUMC t-inf_obs: 365646.123 pg/ml * h^2
  AUMC t-inf_pred: 248467.457 pg/ml * h^2
  C0: 18.14454 ng/mL
  Cl_obs: 0.000 (mg)/(pg/ml)/h
  Clast_obs: 463.040 pg/mL
  Clast_pred: 314.650 pg/mL
  Cmax: 22.5132 ng/mL
  Lambda_z: 0.077 h⁻¹
  MRT 0-inf_obs: 10.596 h
  MRT 0-inf_pred: 9.984 h
  MRT 0-t: 8.635 h
  Tlast: 48.000 h
  Tmax: 30 min
  Vss_obs: 0.000 (mg)/(pg/ml)
  Vz_obs: 0.000 (mg)/(pg/ml)
  t½: 8.980 h
[1]; 0.08 h
  Mean hGH levels: 20014.87 ± 620.32 pg/mL
[1]; 0.5 h
  Mean hGH levels: 22513.2 ± 562.85 pg/mL
[1]; 1 h
  Mean hGH levels: 22130.7 ± 728.54 pg/mL
[1]; 4 h
  Mean hGH levels: 14910.13 ± 2908.87 pg/mL
[1]; 8 h
  Mean hGH levels: 1159.19 ± 226.15 pg/mL
[1]; 24 h
  Mean hGH levels: 1495.55 ± 291.77 pg/mL
[1]; 48 h
  Mean hGH levels: 463.04 ± 90.34 pg/mL
[2]; Minipigs
  AUC 0-inf_obs: 160.057765 ng·h/mL
  AUC 0-inf_pred: 158.135382 ng·h/mL
  AUC t-inf_obs: 5.998634 ng·h/mL
  AUC t-inf_pred: 4.076251 ng·h/mL
  AUC(0-t): 154.059131 ng·h/mL
  AUMC 0-inf_obs: 1696005.242 pg/ml * h^2
  AUMC 0-inf_pred: 1578826.575 pg/ml * h^2
  AUMC 0-t: 1330359.118 pg/ml * h^2
  AUMC 0-t/0-inf_obs: 0.784
  AUMC 0-t/0-inf_pred: 0.843
  AUMC t-inf_obs: 365646.123 pg/ml * h^2
  AUMC t-inf_pred: 248467.457 pg/ml * h^2
  C0: 18.14454 ng/mL
  Cl_obs: 0.000 (mg)/(pg/ml)/h
  Clast_obs: 463.040 pg/mL
  Clast_pred: 314.650 pg/mL
  Cmax: 22.5132 ng/mL
  Lambda_z: 0.077 h⁻¹
  MRT 0-inf_obs: 10.596 h
  MRT 0-inf_pred: 9.984 h
  MRT 0-t: 8.635 h
  Tlast: 48.000 h
  Tmax: 30 min
  Vss_obs: 0.000 (mg)/(pg/ml)
  Vz_obs: 0.000 (mg)/(pg/ml)
  t½: 8.980 h
[2]; 0 hrs
  Mean hGH levels: 18144.54 ± 1619.64 pg/mL
[2]; 0.08 hrs
  Mean hGH levels: 20014.87 ± 620.32 pg/mL
[2]; 0.5 hrs
  Mean hGH levels: 22513.2 ± 562.85 pg/mL
[2]; 1 hrs
  Mean hGH levels: 22130.7 ± 728.54 pg/mL
[2]; 4 hrs
  Mean hGH levels: 14910.13 ± 2908.87 pg/mL
[2]; 8 hrs
  Mean hGH levels: 1159.19 ± 226.15 pg/mL
[2]; 24 hrs
  Mean hGH levels: 1495.55 ± 291.77 pg/mL
[2]; 48 hrs
  Mean hGH levels: 463.04 ± 90.34 pg/mL

## adalimumab
[3]; Minipigs
  AUC 0-inf_obs: 2387.704908 µg·h/mL
  AUC 0-inf_pred: 2433.025437 µg·h/mL
  AUC t-inf_obs: 1464.822434 µg·h/mL
  AUC t-inf_pred: 1510.142963 µg·h/mL
  AUC(0-t): 922.8824739 µg·h/mL
  AUMC 0-inf_obs: 476541890.8 ng/ml * h^2
  AUMC 0-inf_pred: 490022798.4 ng/ml * h^2
  AUMC 0-t: 40820243.03 ng/ml * h^2
  AUMC 0-t/0-inf_obs: 0.08566
  AUMC 0-t/0-inf_pred: 0.0833
  AUMC t-inf_obs: 435721647.8 ng/ml * h^2
  AUMC t-inf_pred: 449202555.4 ng/ml * h^2
  C0: 8311 ng/mL
  Cl_obs: 5.026E−06 (mg)/(ng/ml)/h
  Cl_pred: 4.932E−06 (mg)/(ng/ml)/h
  Clast_obs: 7271 ng/mL
  Clast_pred: 7496 ng/mL
  Cmax: 12110.42857 ng/mL
  Lambda_z: 0.00496 h⁻¹
  MRT 0-inf_obs: 199.6 h
  MRT 0-inf_pred: 201.4 h
  MRT 0-t: 44.23 h
  Tlast: 96 h
  Tmax: 2 h
  Vss_obs: 0.001003 (mg)/(ng/ml)
  Vss_pred: 0.0009934 (mg)/(ng/ml)
  Vz_obs: 0.001012 (mg)/(ng/ml)
  Vz_pred: 0.0009936 (mg)/(ng/ml)
  t½: 139.6393 h
[3]; 0 hrs
  Mean adalimumab levels: 8311.04
[3]; 0.08 hrs
  Mean adalimumab levels: 11638.36
[3]; 0.5 hrs
  Mean adalimumab levels: 11171.29
[3]; 1 hrs
  Mean adalimumab levels: 11637.57
[3]; 2 hrs
  Mean adalimumab levels: 11541.29
[3]; 4 hrs
  Mean adalimumab levels: 12110.43
[3]; 8 hrs
  Mean adalimumab levels: 11914.71
[3]; 24 hrs
  Mean adalimumab levels: 11552.57
[3]; 48 hrs
  Mean adalimumab levels: 10162.00
[3]; 72 hrs
  Mean adalimumab levels: 9803.00
[3]; 96 hrs
  Mean adalimumab levels: 8772.00
[4]; Minipigs
  AUC 0-inf_obs: 2387.704908 µg·h/mL
  AUC 0-inf_pred: 2433.025437 µg·h/mL
  AUC t-inf_obs: 1464.822434 µg·h/mL
  AUC t-inf_pred: 1510.142963 µg·h/mL
  AUC(0-t): 922.8824739 µg·h/mL
  AUMC 0-inf_obs: 476541890.8 ng/ml * h^2
  AUMC 0-inf_pred: 490022798.4 ng/ml * h^2
  AUMC 0-t: 40820243.03 ng/ml * h^2
  AUMC 0-t/0-inf_obs: 0.08566
  AUMC 0-t/0-inf_pred: 0.0833
  AUMC t-inf_obs: 435721647.8 ng/ml * h^2
  AUMC t-inf_pred: 449202555.4 ng/ml * h^2
  C0: 8311 ng/mL
  Cl_obs: 5.026E−06 (mg)/(ng/ml)/h
  Cl_pred: 4.932E−06 (mg)/(ng/ml)/h
  Clast_obs: 7271 ng/mL
  Clast_pred: 7496 ng/mL
  Cmax: 12110.42857 ng/mL
  Lambda_z: 0.00496 h⁻¹
  MRT 0-inf_obs: 199.6 h
  MRT 0-inf_pred: 201.4 h
  MRT 0-t: 44.23 h
  Tlast: 96 h
  Tmax: 2 h
  Vss_obs: 0.001003 (mg)/(ng/ml)
  Vss_pred: 0.0009934 (mg)/(ng/ml)
  Vz_obs: 0.001012 (mg)/(ng/ml)
  Vz_pred: 0.0009936 (mg)/(ng/ml)
  t½: 139.6393 h
[4]; 0 hrs
  Mean adalimumab levels: 8311.04
[4]; 0.08 hrs
  Mean adalimumab levels: 11638.36
[4]; 0.5 hrs
  Mean adalimumab levels: 11171.29
[4]; 1 hrs
  Mean adalimumab levels: 11637.57
[4]; 2 hrs
  Mean adalimumab levels: 11541.29
[4]; 4 hrs
  Mean adalimumab levels: 12110.43
[4]; 8 hrs
  Mean adalimumab levels: 11914.71
[4]; 24 hrs
  Mean adalimumab levels: 11552.57
[4]; 48 hrs
  Mean adalimumab levels: 10162.00
[4]; 72 hrs
  Mean adalimumab levels: 9803.00
[4]; 96 hrs
  Mean adalimumab levels: 8772.00
